Like-named read-outs stand apart in the source and are kept apart here.
T1: BTN1A1 Peptide 4 (human)
T1 construct: also called BTN1A1-pep4- WT; Pep4
T1 peptide: EVEVGDRTDWAIGVC

T2: hBTN1A1 ICD (human, UniProt Q13410 270-526)
T2 sequence: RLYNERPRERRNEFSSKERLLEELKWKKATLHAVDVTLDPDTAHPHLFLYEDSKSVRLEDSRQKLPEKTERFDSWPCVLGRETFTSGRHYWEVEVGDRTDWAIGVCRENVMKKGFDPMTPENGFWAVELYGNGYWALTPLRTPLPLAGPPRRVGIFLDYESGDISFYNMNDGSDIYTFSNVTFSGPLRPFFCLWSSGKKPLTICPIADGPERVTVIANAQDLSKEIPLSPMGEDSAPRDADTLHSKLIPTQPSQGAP

T3: denatured hBTN1A1 ICD (human, UniProt Q13410 270-526)
T3 construct: Same protein as hBTN1A1 ICD, denatured before the ELISA; also called hBTN1A1 ICD denatured; Denatured ICD
T3 sequence: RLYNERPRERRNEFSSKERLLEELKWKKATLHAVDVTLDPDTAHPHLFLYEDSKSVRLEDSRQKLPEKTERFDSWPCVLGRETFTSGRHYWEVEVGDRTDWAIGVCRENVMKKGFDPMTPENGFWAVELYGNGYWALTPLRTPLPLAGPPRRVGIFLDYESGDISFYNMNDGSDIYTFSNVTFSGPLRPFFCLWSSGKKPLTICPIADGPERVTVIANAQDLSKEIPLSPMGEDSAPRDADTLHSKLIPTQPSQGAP

T4: hBTN1A1-His (human, UniProt Q13410)
T4 construct: also called human BTN1A1-His
T4 sequence (antigen, looked up): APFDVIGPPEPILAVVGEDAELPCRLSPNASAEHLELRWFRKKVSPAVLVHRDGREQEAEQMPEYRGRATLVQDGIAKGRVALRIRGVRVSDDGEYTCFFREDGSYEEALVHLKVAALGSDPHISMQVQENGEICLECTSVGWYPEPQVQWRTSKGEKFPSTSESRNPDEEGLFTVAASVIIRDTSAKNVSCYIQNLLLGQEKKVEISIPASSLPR

T5: ECD1 Peptide
T5 construct: also called BTN1A1 ECD1
T5 peptide: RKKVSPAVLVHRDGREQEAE


Tests used:
BTN1A1 Peptide 4 [1] = molecular target: T1, BTN1A1 Peptide 4; experiment: ELISA clone screen, GenScript, negative control
hBTN1A1 ICD [2] = molecular target: T2, hBTN1A1 ICD; experiment: ELISA clone screen, GenScript, negative control
denatured hBTN1A1 ICD [3] = molecular target: T3, denatured hBTN1A1 ICD; experiment: ELISA clone screen, GenScript, negative control
BTN1A1 Peptide 4 [4] = molecular target: T1, BTN1A1 Peptide 4; experiment: ELISA clone screen, STCube, negative control
hBTN1A1 ICD [5] = molecular target: T2, hBTN1A1 ICD; experiment: ELISA clone screen, STCube, negative control
denatured hBTN1A1 ICD [6] = molecular target: T3, denatured hBTN1A1 ICD; experiment: ELISA clone screen, STCube, negative control
hBTN1A1-His [7] = molecular target: T4, hBTN1A1-His; experiment: ELISA, titration of purified antibody
ECD1 Peptide = molecular target: T5, ECD1 Peptide; experiment: ELISA clone screen
KLH Only = KLH Only (keyhole limpet); experiment: ELISA clone screen
Chain of KLH Only (keyhole limpet) (Q10583 17-3414): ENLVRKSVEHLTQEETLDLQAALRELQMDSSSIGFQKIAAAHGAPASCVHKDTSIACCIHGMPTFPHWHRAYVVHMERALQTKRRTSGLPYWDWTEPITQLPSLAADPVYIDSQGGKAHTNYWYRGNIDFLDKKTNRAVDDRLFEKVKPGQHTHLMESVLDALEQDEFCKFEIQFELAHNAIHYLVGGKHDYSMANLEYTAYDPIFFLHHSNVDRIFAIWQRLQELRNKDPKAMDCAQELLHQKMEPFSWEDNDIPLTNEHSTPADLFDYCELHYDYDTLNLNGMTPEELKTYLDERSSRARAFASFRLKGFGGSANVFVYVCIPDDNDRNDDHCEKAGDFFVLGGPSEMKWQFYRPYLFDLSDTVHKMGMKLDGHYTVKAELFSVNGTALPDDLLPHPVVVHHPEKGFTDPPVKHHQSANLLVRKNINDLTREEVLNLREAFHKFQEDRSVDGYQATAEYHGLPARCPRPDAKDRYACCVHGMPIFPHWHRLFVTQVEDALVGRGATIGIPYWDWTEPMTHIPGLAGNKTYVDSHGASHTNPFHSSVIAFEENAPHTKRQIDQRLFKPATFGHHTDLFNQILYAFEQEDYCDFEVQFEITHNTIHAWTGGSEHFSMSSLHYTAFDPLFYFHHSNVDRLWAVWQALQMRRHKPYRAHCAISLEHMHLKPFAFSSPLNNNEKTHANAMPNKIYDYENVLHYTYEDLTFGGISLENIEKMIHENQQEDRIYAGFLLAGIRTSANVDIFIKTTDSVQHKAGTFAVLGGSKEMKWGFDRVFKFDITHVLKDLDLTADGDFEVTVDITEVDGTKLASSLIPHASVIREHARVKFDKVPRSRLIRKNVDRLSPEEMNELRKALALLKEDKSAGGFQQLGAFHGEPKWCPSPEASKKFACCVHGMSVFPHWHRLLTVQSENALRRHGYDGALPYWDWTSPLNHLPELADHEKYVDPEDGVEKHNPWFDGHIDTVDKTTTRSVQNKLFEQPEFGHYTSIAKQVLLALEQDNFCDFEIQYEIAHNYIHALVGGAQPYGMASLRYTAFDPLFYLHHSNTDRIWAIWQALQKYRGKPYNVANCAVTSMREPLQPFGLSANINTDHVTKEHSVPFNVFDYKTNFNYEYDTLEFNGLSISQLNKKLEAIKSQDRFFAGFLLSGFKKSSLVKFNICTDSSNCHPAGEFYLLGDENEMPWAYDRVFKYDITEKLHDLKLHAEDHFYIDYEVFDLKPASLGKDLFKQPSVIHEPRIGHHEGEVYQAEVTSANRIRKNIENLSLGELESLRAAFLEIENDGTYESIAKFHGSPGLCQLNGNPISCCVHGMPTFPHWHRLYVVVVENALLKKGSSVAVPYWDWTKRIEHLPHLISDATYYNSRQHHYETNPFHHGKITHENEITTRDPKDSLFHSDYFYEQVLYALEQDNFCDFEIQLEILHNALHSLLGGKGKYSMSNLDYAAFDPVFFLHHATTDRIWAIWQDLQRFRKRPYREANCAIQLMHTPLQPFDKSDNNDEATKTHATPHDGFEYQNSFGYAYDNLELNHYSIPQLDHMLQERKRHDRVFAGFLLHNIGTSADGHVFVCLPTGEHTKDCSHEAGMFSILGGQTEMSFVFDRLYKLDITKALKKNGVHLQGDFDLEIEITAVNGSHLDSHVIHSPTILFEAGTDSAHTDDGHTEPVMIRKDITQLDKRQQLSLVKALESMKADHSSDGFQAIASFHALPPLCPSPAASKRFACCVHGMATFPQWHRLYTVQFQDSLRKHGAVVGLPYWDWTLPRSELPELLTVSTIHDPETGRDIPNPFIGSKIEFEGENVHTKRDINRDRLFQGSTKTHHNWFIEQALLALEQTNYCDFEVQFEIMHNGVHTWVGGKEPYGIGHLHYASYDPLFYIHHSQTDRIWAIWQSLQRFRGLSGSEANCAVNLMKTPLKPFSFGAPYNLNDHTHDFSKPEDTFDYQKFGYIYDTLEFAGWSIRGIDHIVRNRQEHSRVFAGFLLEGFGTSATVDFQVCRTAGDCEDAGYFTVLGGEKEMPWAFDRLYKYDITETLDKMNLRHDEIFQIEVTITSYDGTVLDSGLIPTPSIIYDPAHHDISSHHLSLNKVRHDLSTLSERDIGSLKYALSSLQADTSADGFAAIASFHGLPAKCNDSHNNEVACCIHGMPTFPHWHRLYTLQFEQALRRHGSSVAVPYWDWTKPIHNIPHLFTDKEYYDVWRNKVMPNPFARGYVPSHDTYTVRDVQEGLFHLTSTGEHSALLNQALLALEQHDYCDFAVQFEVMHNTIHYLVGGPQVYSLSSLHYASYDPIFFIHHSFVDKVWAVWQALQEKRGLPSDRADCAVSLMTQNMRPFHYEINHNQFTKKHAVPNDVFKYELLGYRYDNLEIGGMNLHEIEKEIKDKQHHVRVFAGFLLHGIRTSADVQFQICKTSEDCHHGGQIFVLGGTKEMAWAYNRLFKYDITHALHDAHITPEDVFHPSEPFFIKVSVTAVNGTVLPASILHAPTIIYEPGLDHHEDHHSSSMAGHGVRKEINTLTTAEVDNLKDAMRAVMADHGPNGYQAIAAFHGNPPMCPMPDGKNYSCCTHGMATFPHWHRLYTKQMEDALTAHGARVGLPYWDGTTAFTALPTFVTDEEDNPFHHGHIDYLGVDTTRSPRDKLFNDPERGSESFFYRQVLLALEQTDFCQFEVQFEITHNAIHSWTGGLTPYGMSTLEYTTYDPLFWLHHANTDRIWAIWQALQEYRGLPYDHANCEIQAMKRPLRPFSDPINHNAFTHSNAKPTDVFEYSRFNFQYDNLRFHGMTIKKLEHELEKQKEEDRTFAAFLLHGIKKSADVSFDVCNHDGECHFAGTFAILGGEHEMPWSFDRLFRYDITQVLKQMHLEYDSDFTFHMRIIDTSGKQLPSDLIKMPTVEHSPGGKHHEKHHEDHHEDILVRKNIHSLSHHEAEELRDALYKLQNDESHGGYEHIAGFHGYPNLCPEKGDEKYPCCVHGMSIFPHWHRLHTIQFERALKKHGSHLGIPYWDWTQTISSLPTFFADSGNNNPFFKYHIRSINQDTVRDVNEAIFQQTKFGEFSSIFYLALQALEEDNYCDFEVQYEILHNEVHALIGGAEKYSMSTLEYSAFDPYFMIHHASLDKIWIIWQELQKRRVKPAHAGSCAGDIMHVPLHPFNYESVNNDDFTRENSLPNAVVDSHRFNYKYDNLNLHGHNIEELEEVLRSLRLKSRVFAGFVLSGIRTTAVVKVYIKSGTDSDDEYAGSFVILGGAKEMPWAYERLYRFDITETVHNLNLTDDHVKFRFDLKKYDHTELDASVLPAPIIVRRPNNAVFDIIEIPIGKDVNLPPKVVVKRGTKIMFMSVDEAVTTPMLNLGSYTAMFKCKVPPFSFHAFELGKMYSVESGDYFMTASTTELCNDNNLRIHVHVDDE

hBTN1A1-His [8] = molecular target: T4, hBTN1A1-His; experiment: ELISA clone screen
hBTN1A1-His [9] = molecular target: T4, hBTN1A1-His; experiment: ELISA, titration of purified antibody; remark: listed apart in the source

| ELISA signal (BTN1A1 Peptide 4 [1]) | ELISA signal (hBTN1A1 ICD [2]) | ELISA signal (denatured hBTN1A1 ICD [3]) | ELISA signal (BTN1A1 Peptide 4 [4]) | ELISA signal (hBTN1A1 ICD [5]) | ELISA signal (denatured hBTN1A1 ICD [6]) | EC50 (read off the curve) (hBTN1A1-His [7]) | O.D. 450 nm (ECD1 Peptide) | O.D. 450 nm (KLH Only) | O.D. 450 nm (hBTN1A1-His [8]) | EC50 (read off the curve) (hBTN1A1-His [9]) | Molecule |
| --- | --- | --- | --- | --- | --- | --- | --- | --- | --- | --- | --- |
| 0.074 | 0.063 | 0.062 | 0.048 | 0.04 | 0.041 |  |  |  |  |  | Negative (control of the clone screen ELISA) |
|  |  |  |  |  |  | ~0.02 µg/mL | 3.18 | 0.051 | 2.91 |  | STC85F1-1 (antibody, V domains shown, From immunized New Zealand rabbits; IgG heavy chain and Kappa light chain; Variable domains without signal peptide; also called clone #85F1-1) VH: QSLEESGGRLVTPGGSLTLTCTVSGIDLSRYGVNWVRQAPGKGLEWIGYIGTTSNTYYASWAKGRFTISKTSSTTVDLKMTSLTTEDTATYFCARSVVSPSNSSFWGQGTLVTVSS VL: DPVMTQTPSSTSAAVGGTVTINCQSSQSVYNNKNLSWFQQKPGQPPKLLIYRASTLPSGVPSRFKGSGSGTQFTLTISDLECDDAATYYCAGGYSGDINVFGGGTEVVVK |
|  |  |  |  |  |  |  | 2.66 | 0.052 | 2.1 | ~0.02 µg/mL | STC43G3-1 (antibody, V domains shown, From immunized New Zealand rabbits; IgG heavy chain and Kappa light chain; Variable domains without signal peptide; also called clone #43G3-1) VH: QSLEESGGRLVTPGTPLTLTCTVSGIDLSRYGVNWVRQAPGKGLEWIGYIGTTGNTYYASWVNGRFTISKTSTTVELKMTSLTAADTATYFCARSVVSPSNSSFWGQGTLVTVSS VL: DPVMTQTPSSTSAAVGGTVTINCQSSQSVYNNNNLSWFQQKPGQPPKLLIYRASKLPSGVPPRFSGSGSGTQFTLTISSVQCDDAATYFCAGGYSGDINVFGGGTEVVVK |
